Here are results for 2 molecules from PMC2606091 (Cell, 2008).

One may read the Kd as a measure of binding affinity in units of concentration. For orientation: stoichiometry N means the number of molecules, sites or subunits per partner or assembly.

In series [1] the target is Hsp33 (Escherichia coli) (UniProt P0A6Y5). The settings on record: cited from earlier work.
Series [2] deals with the molecule itself. Kind of series: AUC.

Turning to Hsp33 (from UniProt P0A6Y5), in series [1], the Kd is 590 nM.

B1: Hsp33 oxidised and activated with a 10-fold molar excess of HOCl (Hsp33_(HOCl)) (natural protein)
chain: MPQHDQLHRYLFENFAVRGELVTVSETLQQILENHDYPQPVKNVLAELLVATSLLTATLKFDGDITVQLQGDGPMNLAVINGNNNQQMRGVARVQGEIPENADLKTLVGNGYVVITITPSEGERYQGVVGLEGDTLAACLEDYFMRSEQLPTRLFIRTGDVDGKPAAGGMLLQVMPAQNAQQDDFDHLATLTETIKTEELLTLPANEVLWRLYHEEEVTVYDPQDVEFKCTCSRERCADALKTLPDEEVDSILAEDGEIDMHCDYCGNHYLFNAMDIAEIRNNASPADPQVH
modifications: two intramolecular disulfide bonds (Cys232-Cys234; Cys265/Cys268 fully oxidised) after HOCl treatment
Consider B1, for which, in series [2], the Kd came to 570 nM and the “stoichiometry N” value stood at 2.
